# Measured values taken from US8895526B2, “Identification of RNAI targets and use of RNAI for rational therapy of chemotherapy-resistant leukemia and other cancers” (Cold Spring Harbor Laboratory, priority 2009, dated 2014).
# B1: Ap1s2.2744: shRNA, SEQ ID NO: 90 (nucleic acid)
# chain: TGCTGTTGACAGTGAGCGACAGGAGCAAGATGAGTTACTATAGTGAAGCCACAGATGTATAGTAACTCATCTTGCTCCTGCTGCCTACTGCCTCGGA
# B2: Pitpnm1.561: shRNA, SEQ ID NO: 165 (nucleic acid)
# chain: TGCTGTTGACAGTGAGCGCCAGGATGCTTATCAAGGAGTATAGTGAAGCCACAGATGTATACTCCTTGATAAGCATCCTGATGCCTACTGCCTCGGA
# B3: Gart.2470: shRNA, SEQ ID NO: 126 (nucleic acid)
# chain: TGCTGTTGACAGTGAGCGCAAGAATCTGATTGAAACCATATAGTGAAGCCACAGATGTATATGGTTTCAATCAGATTCTTATGCCTACTGCCTCGGA
# B4: Thyn1.315: shRNA, SEQ ID NO: 186 (nucleic acid)
# chain: TGCTGTTGACAGTGAGCGCAAGCAACTACTGGCTGATGAATAGTGAAGCCACAGATGTATTCATCAGCCAGTAGTTGCTTATGCCTACTGCCTCGGA
# B5: Cpd.1693: shRNA, SEQ ID NO: 109 (nucleic acid)
# chain: TGCTGTTGACAGTGAGCGCACCAGGTGAACCAGAATTTAATAGTGAAGCCACAGATGTATTAAATTCTGGTTCACCTGGTTTGCCTACTGCCTCGGA
# B6: Slc22a4.2223: shRNA, SEQ ID NO: 181 (nucleic acid)
# chain: TGCTGTTGACAGTGAGCGCAAACGTATAAATGCTATCCAATAGTGAAGCCACAGATGTATTGGATAGCATTTATACGTTTATGCCTACTGCCTCGGA
# B7: Arf3.1357: shRNA, SEQ ID NO: 91 (nucleic acid)
# chain: TGCTGTTGACAGTGAGCGACCCTTCTGTGTTGGTGAGATATAGTGAAGCCACAGATGTATATCTCACCAACACAGAAGGGCTGCCTACTGCCTCGGA
# B8: Fn3k.298: shRNA, SEQ ID NO: 122 (nucleic acid)
# chain: TGCTGTTGACAGTGAGCGAAAGAGCCTTAGCAGTCAGGCATAGTGAAGCCACAGATGTATGCCTGACTGCTAAGGCTCTTCTGCCTACTGCCTCGGA
# B9: Pygl.1463: shRNA, SEQ ID NO: 171 (nucleic acid)
# chain: TGCTGTTGACAGTGAGCGCACCAGACAAGTTCCAGAATAATAGTGAAGCCACAGATGTATTATTCTGGAACTTGTCTGGTTTGCCTACTGCCTCGGA
# B10: Dsp.6155: shRNA, SEQ ID NO: 114 (nucleic acid)
# chain: TGCTGTTGACAGTGAGCGCCAGGAAGTTCTTCGATCAATATAGTGAAGCCACAGATGTATATTGATCGAAGAACTTCCTGTTGCCTACTGCCTCGGA
# B11: Pctk1.948: shRNA, SEQ ID NO: 161 (nucleic acid)
# chain: TGCTGTTGACAGTGAGCGCCCGGGAAGTATCCCTGCTTAATAGTGAAGCCACAGATGTATTAAGCAGGGATACTTCCCGGATGCCTACTGCCTCGGA
# B12: Gas1.2159: shRNA, SEQ ID NO: 128 (nucleic acid)
# chain: TGCTGTTGACAGTGAGCGACCCGAAATTACAACTGCATTATAGTGAAGCCACAGATGTATAATGCAGTTGTAATTTCGGGGTGCCTACTGCCTCGGA
# B13: Mef2c.1872: shRNA, SEQ ID NO: 141 (nucleic acid)
# chain: TGCTGTTGACAGTGAGCGCTGCCTCAGTGATACAGTATAATAGTGAAGCCACAGATGTATTATACTGTATCACTGAGGCAATGCCTACTGCCTCGGA
# Tested on: tet-on competent MLL/AF9+Nras AML
# Assay: Pooled negative selection RNAi screening (deep sequencing)
# Type: cell-based, mouse
# Conditions: deep sequencing reads, On Dox compared to T0
# Excerpt: (§1) In addition to the analysis of single shRNAs for inhibitory effects in vitro and in vivo, the combination of tet-on competent cancer models and tet-regulatable shRNA expression vectors allowing for monitoring shRNA expression through fluorescent and other reporter genes (e.g. TRMPV and derivates) facilitates pooled shRNA negative selection screening (FIG. 37). In such approaches a pool of over 1,000 shRNAs are retrovirally transduced into tet-on competent cancer models (here MLL/AF9+Nras AML) and selected for shRNA containing cells by either drug selection (e.g. G418) or fluorescence-activated cell sorting (FACS). Selected cell populations harboring a library of shRNAs then can be cultured in the absence or presence of doxycyline (off dox and on dox, respectively) or injected into syngeneic recipient mice that are either treated with doxycyline or left untreated.
# (§2) The representation of each shRNA within the pool can be effectively assessed by deep sequencing of shRNA cassettes in a given cell population. For this, genomic DNA is extracted from leukemia cells containing the shRNA pool, and the shRNA guide or passenger strand (21-22 target gene specific nucleotides of the shRNA) by PCR using primers specific for common sequences flanking the gene specific part of the shRNA (e.g. miR30 19 nt loop and miR30 common 3′ sequence). The primers also contain 5′-adapters required for deep sequencing (e.g. for Illumina/Solexa sequencing primers are p5+mir3: 5′-[…]-3′ (SEQ ID NO: 215) and p7+Loop: 5′-[…]-3′ (SEQ ID NO: 216)). Deep sequencing is subsequently performed using a primer binding the flanking nucleotide sequence next to the target gene specific part of the shRNA (for Illumina/Solexa platforms the primer is mir30EcoR1Seq: 5′-TAGCCCCTTGAATTCCGA GGCAGTAGGCA-3′ (SEQ ID NO: 217)).
# (§3) The use of shRNA vectors that allow for monitoring of shRNA expression through fluorescent and other reporter genes (e.g. TRMPV) in combination with tet-on competent mouse models facilitates the isolation of pure shRNA expressing cell populations (e.g. by FACS, for TRMPV by sorting of Venus/dsRed double positive cells (FIG. 38). This selection of shRNA expressing cells prior to DNA isolation strongly reduces the background caused by cell populations with insufficient shRNA induction, which are predicted to contain genomic representation of the whole shRNA library without shRNA specific shifts in representation. The final readout is based on the comparison of shRNA representation (i.e. deep sequencing read numbers) before the assay (t0) or from cell populations left without doxycycline treatment (off dox) to those where shRNA were induced and cells subsequently sorted for shRNA expressing cells (on dox). shRNA with inhibitory effects are predicted to loose representation (show less reads) on dox compared to t0 and off dox.
# (§4) This pooled is RNAi screening strategy can be applied to rapidly survey inhibitory effects of large pools of shRNAs (˜1000 at a time) in different tet-on competent cancer models and normal control cells (FIG. 39). For example, a pool of 1166 shRNAs targeting 836 predominantly druggable genes associated with MLL fusion proteins in human leukemia and mouse models of MLL/AF9-induced AML (MLL cure library) was analyzed in pooled negative selection screening in tet-on competent MLL/AF9+Nras AML and immortalized murine embryonic fibroblasts (Mef) in parallel. To establish and validate this screening approach, the pool also contained 64 control shRNAs each of which have been previously analyzed for inhibitory effects in both AML cells and Mefs using the same experimental system (FIG. 40).
# (§5) After pooling of 1166 experimental and 64 control shRNAs the presence of shRNAs was verified by deep sequencing of shRNAs within the plasmid vector pool (FIG. 41). […]
row,Molecule,Fold depletion in AML [Fold]
1,B1,57.84
2,B2,60.72
3,B3,146.15
4,B4,145.53
5,B5,50.07
6,B6,41.21
7,B7,94.96
8,B8,103.54
9,B9,118.65
10,B10,242.96
11,B11,123.76
12,B12,132.34
13,B13,63.15

# Tested on: immortalized murine embryonic fibroblasts (Mef)
# Assay: as above
# Type: cell-based
# Conditions: deep sequencing reads, on dox compared to initial representation
# Excerpt: as §1, §2, §3, §4, §5
row,Molecule,Fold depletion in Mef [Fold]
1,B1,2.31
2,B2,0.27
3,B3,0.67
4,B4,1.04
5,B5,3.91
6,B6,3.41
7,B7,0.86
8,B8,2.82
9,B9,1.94
10,B10,0.60
11,B11,0.27
12,B12,0.81
13,B13,0.77
